Results: patent US20220162304A1

Tests used:
[1] = molecular target: human CD79B antigen (coating antigen of the ELISA, construct not stated) (human) (UniProt P40259); experiment: ELISA, plate coated with antigen at 1 ug/mL, serial antibody dilutions, OD450
[2] = molecular target: fusion protein of human CD79B extracellular domain (ECD) and His tag (human CD79B ECD-His) (human) (UniProt P40259); experiment: SPR (Biacore 8K; by Example 2 human CD79B-His immobilised on CM5 chip, antibody flowed over)
Chain of fusion protein of human CD79B extracellular domain (ECD) and His tag (human CD79B ECD-His) (human) (P40259 29-159 limits assumed): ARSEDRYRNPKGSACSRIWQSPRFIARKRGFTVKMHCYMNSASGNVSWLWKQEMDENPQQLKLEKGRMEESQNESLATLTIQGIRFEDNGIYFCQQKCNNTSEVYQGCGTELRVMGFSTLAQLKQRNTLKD

Chain of human CD79B antigen (coating antigen of the ELISA, construct not stated) (human) (P40259 29-159 limits assumed): as above

EC50 (read off the curve) [1]: 0.1 nM
Kd [2]: 5.98 nM
Substance: SN8 (antibody)
